{"source": "paper doi:10.1101/209445", "about": "“Large conformational changes in FtsH create an opening for substrate entry” (bioRxiv, 2017)", "proteins": {"B1": {"name": "Full-length Aquifex aeolicus FtsH (enzyme, UniProt O67077 1-634, looked up)", "chain": "MNALKNFFIWAIIIGAAIVAFNLFEGKREFTTKVSLNEVVKLVEEGKVSYAEVRGNTAIIQTKDGQKLEVTLPPNTNLVDKMVEKGVRVEVANPEPPGGWLVNVFLSWLPILFFIGIWIFLLRQMSGGGNVNRAFNFGKSRAKVYIEEKPKVTFKDVAGIEEVKEEVKEIIEYLKDPVKFQKLGGRPPKGVLLYGEPGVGKTLLAKAIAGEAHVPFISVSGSDFVEMFVGVGAARVRDLFETAKKHAPCIIFIDEIDAVGRARGAIPVGGGHDEREQTLNQLLVEMDGFDTSDGIIVIAATNRPDILDPALLRPGRFDRQIFIPKPDVRGRYEILKVHARNKKLAKDVDLEFVARATPGFTGADLENLLNEAALLAARKGKEEITMEEIEEALDRITMGLERKGMTISPKEKEKIAIHEAGHALMGLVSDDDDKVHKISIIPRGMALGVTQQLPIEDKHIYDKKDLYNKILVLLGGRAAEEVFFGKDGITTGAENDLQRATDLAYRMVSMWGMSDKVGPIAIRRVANPFLGGMTTAVDTSPDLLREIDEEVKRIITEQYEKAKAIVEEYKEPLKAVVKKLLEKETITCEEFVEVFKLYGIELKDKCKKEELFDKDRKSEENKELKSEEVKEEVV", "notes": "The protomer is the molecule; The construct came from U. Baumann; also called AaFtsH; LMNG-AaFtsH; source: E. coli, overexpressed (pET22a); extracted from purified membranes with LMNG; purified (Ni-NTA/HisTrap, SEC Superose 6)"}}, "key": {"[1]": {"target": "the molecule itself", "test": "native gel or EMSA; Native PAGE (Mini-PROTEAN TGX precast gel) of SEC peak 2 (13.4 mL)"}, "[2]": {"target": "the molecule itself", "test": "negative-stain electron microscopy; SEC peak 1 (dodecamer fraction), 3% uranyl acetate; 15000 particles, 2D class averages; 3D map with no symmetry imposed, 25 Å; two hexamers in a single LMNG micelle"}}, "data": [{"protein": "B1", "values": [{"measurement": "stoichiometry N", "setting": "[1]", "result": 6}, {"measurement": "stoichiometry N", "setting": "[2]", "result": 12}]}]}
